Target: T1, Smc5(G1054C) (S. cerevisiae, UniProt Q08204 1-1093, G1054C)
T1 construct: Smc5, S. cerevisiae; subunit of the Smc5/6 hexamer; Stood in the assay as a subunit of the purified Smc5/6 hexamer (Smc5, Smc6, Nse1-4); also called Smc5 with the engineered cysteine of the Smc5/Nse4 interface
T1 sequence (looked up): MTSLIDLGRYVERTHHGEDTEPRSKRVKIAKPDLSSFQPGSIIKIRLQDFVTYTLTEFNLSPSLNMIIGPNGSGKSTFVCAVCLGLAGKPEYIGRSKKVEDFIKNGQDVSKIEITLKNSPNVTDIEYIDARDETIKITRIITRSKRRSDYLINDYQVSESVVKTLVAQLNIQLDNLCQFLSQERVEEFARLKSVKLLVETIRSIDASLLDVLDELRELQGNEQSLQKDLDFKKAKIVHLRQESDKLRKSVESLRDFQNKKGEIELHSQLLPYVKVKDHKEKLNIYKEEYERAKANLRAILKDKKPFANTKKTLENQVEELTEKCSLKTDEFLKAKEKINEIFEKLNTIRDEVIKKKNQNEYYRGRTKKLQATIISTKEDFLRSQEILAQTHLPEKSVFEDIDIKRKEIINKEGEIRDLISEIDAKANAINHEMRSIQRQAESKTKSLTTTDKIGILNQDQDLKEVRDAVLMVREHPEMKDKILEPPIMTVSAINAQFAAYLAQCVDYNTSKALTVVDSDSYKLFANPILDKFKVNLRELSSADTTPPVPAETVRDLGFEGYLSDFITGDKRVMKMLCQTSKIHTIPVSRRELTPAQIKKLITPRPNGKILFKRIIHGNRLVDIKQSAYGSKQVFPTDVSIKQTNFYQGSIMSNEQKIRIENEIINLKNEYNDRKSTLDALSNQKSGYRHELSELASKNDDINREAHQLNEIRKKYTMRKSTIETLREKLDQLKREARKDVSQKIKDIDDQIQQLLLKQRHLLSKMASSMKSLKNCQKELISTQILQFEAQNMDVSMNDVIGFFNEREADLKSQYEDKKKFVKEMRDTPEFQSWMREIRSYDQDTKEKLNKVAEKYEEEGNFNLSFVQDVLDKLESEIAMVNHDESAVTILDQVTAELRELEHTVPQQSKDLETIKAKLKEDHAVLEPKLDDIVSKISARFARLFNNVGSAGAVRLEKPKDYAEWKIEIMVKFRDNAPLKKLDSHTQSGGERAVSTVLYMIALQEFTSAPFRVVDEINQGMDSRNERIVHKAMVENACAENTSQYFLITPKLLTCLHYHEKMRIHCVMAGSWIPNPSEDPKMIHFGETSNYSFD
Assay: cross-linking; as a1 with the Nse5/6 dimer added in 1.25 x molar excess (0.625 uM) to the hexamer; SDS-PAGE, Coomassie
Details: both partners purified

binding result: binds
B1: Nse5/6 dimer (complex, S. cerevisiae)
chain 1: MDGALINSVLYVSPRNGAHYFVELTEKHLLAFEMLNSMCLLENYDHVLLFLECQFGKSHNLAVIPFDIILVLFTLSTLSEYYKEPILRANDPYNTSRETLSRRALKLLQKYLAILKEFDSEQYNLYDLELLRCQFFLAIDTLTPKKQKWGFDRFRRTKSESGVTYRQNASVDPELDQAKTFKNPYRSYISCLEQRNTILGNRLLNLKLNEPGEFINMILWTLSNSLQESTPLFLSSHEIWMPLLEILIDLFSCRQDYFIQHEVAQNVSKSLFVQRLSESPLAVFFESLNTRNFANRFSEYVFLNCDYKLPSDNYATPVHPVYNGENTIVDTYIPTIKCSPLYKSQKSLALRRKLIGSCFKLLLRVPDGHRLITPRIVADDVIQGISRTLASFNDILQFKKFFMTENLSQESYFIPLLAEGTLSEILKDTQECVVILTLVENLSDGVSFCNEVIGLVKSKCFAFTEQCSQASYEEAVLNIEKCDVCLLVLLRYLLHLIGTEAILDAKEQLEMLHAIEKNDSGRRQWAKALNLGNDPPLLYPIVSQMFGVHDKSVIIE
chain 2: MGSVNSSPNEEFETVPDSQISGFDSPLIPTSVGSYFRDDDDDEKVHPNFISDPENDSLNSDEEFSSLENSDLNLSGAKAESGDDFDPILKRTIISKRKAPSNNEDEEIVKTPRKLVNYVPLKIFNLGDSFDDTITTTVAKLQDLKKEILDSPRSNKSIVITSNTVAKSELQKSIKFSGSIPEIYLDVVTKETISDKYKDWHFISKNCHYEQLMDLEMKDTAYSFLFGSSRSQGKVPEFVHLKCPSITNLLVLFGVNQEKCNSLKINYEKKENSRYDNLCTIFPVNKMLKFLMYFYSDDDNDDVREFFLKAFICLILDRKVFNAMESDHRLCFKVLELFNEAHFINSYFEIVDKNDFFLHYRLLQIFPHLQSALLRRRFSEKQGRTETIQQNIIKEFNEFFDCKNYKNLLYFILTMYGSKFIPFGPKCQVTEYFKDCILDISNETTNDVEISILKGILNLFSKIR
notes: Nse5, S. cerevisiae; a native cysteine of it cross-links to Smc5(G1054C); Nse6, S. cerevisiae; also called Nse5/6 loader; loader Nse5/6

— publication doi:10.1101/2022.10.09.511515, “DNA segment capture by Smc5/6 holo-complexes” (bioRxiv, 2022)
